From the supplement of paper PMC10567573

B1: ANKRD44 (parent)
chain: FHCIETLVTTGANVNETDDWGRTA

Variants of: B1
Assay: protein stability index of a GFP-peptide fusion (GPS, HEK-293T) (PSI 1-6); higher = more stable
Conditions: c terminus: a fixed tail appended
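Also: lentivirally expressed fusions sorted by FACS into six bins by GFP to DsRed ratio, PSI derived from sequencing read proportions per bin multiplied by bin number.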

| Variant | protein stability index |
| --- | --- |
| FHCIETLVTTGWNVNETDDWGRTA | 3.07 |
| FHCIETLVTTGRNVNETDDWGRTA | 2.33 |
| FHCIETLVTTGTNVNETDDWGRTA | 2.82 |
| FHCIETLVTTGVNVNETDDWGRTA | 1.59 |
| FHCIETLVTTGENVNETDDWGRTA | 2.31 |
| FHCIETLVTTGNNVNETDDWGRTA | 2.07 |
| FHCIETLVTTGDNVNETDDWGRTA | 1.87 |
| FHCIETLVTTGARVNETDDWGRTA | 2.1 |
| FHCIETLVTTGAQVNETDDWGRTA | 2.3 |
| FHCIETLVTTGAWVNETDDWGRTA | 1.77 |
| FHCIETLVTTGATVNETDDWGRTA | 2.18 |
| FHCIETLVTTGAKVNETDDWGRTA | 2.36 |
| FHCIETLVTTGACVNETDDWGRTA | 1.59 |
| FHCIETLVTTGANVNETDDCGRTA | 2.43 |
| FHCIETLVTTGANVNETDDKGRTA | 3.03 |
| FHCIETLVTTGANVNETDDEGRTA | 3.19 |
| FHCIETLVTTGANVNETDDAGRTA | 2.99 |
| FHCIETLVTTGANVNETDDIGRTA | 2.4 |
| FHCIETLVTTGANVNETDDRGRTA | 2.57 |
| FHCIETLVTTGANVNETDDHGRTA | 2.94 |
| FHCIETLVTTGANVNETDDPGRTA | 2.61 |
| FHCIETLVTTGANVNETDDYGRTA | 2.51 |
| FHCIETLVTTGANVNETDDNGRTA | 3.23 |
| FHCIETLVTVGANVNETDDWGRTA | 2.17 |

| Variant | protein stability index |
| --- | --- |
| FHCIETLVTDGANVNETDDWGRTA | 3.46 |
| FHCIETLVTRGANVNETDDWGRTA | 2.34 |
| FHCIETLVTAGANVNETDDWGRTA | 1.72 |
| FHCIETLVTMGANVNETDDWGRTA | 1.71 |
| FHCIETLVTKGANVNETDDWGRTA | 2.24 |
| FHCIETLVTNGANVNETDDWGRTA | 2.66 |
| FHCIETLVTEGANVNETDDWGRTA | 2.37 |
| FHCIETLVATGANVNETDDWGRTA | 2.01 |
| FHCIETLVPTGANVNETDDWGRTA | 2.06 |
| FHCIETLVVTGANVNETDDWGRTA | 1.6 |
| FHCIETLVCTGANVNETDDWGRTA | 1.78 |
| FHCIETLVRTGANVNETDDWGRTA | 1.86 |
| FHCIETLVNTGANVNETDDWGRTA | 2.56 |
| FHCIETLVFTGANVNETDDWGRTA | 1.25 |
| FHCIETLVTTGANVNEVDDWGRTA | 2 |
| FHCIETLVTTGANVNEFDDWGRTA | 2 |
| FHCIETLVTTGANVNEPDDWGRTA | 2.6 |
| FHCIETLVTTGANVNEEDDWGRTA | 2.84 |
| FHCIETLVTTGANVNEGDDWGRTA | 1.86 |
| FHCIETLVTTGANVNEKDDWGRTA | 2.02 |
| FHCIETLVTTGANVNERDDWGRTA | 1.71 |
| FHCIETLVTTGANVNEWDDWGRTA | 2.04 |
| FHCIETLVTTGANVNEQDDWGRTA | 2.27 |
| FHCIETLVTTGANVNEMDDWGRTA | 1.76 |

| Variant | protein stability index |
| --- | --- |
| FHCIETLVTTGANVNETDDWGRTG | 2.05 |
| FHCIETLVTTGANVNETDDWGRTY | 1.78 |
| FHCIETLVTTGANVNETDDWGRTL | 1.91 |
| FHCIETLVTTGANVNETDDWGRTT | 2.21 |
| FHCIETLVTTGANVNETDDWGRTC | 1.98 |
| FHCIETLVTTGANVNETDDWGRTD | 2.74 |
| FHCIETLVTTGANVNETDDWGRTR | 2.37 |
| FHCIETLVTTGANVNETDDWGRTQ | 2.06 |
| FHCIETLVTTGANVNETDDWGRTP | 2.63 |
| FHCIETLVTTGANVNETDDWGRCA | 1.87 |
| FHCIETLVTTGANVNETDDWGRQA | 2.24 |
| FHCIETLVTTGANVNETDDWGREA | 2.71 |
| FHCIETLVTTGANVNETDDWGRLA | 1.91 |
| FHCIETLVTTGANVNETDDWGRAA | 2.27 |
| FHCIETLVTTGANVNETDDWGRWA | 1.56 |
| FHCIETLVTTGANVNETDDWGRGA | 2.42 |
| FHCIETLVTTGANVNETDDWGRPA | 2.13 |
| FHCDETLVTTGANVNETDDWGRTA | 3.41 |
| FHCVETLVTTGANVNETDDWGRTA | 2.44 |
| FHDIETLVTTGANVNETDDWGRTA | 3.62 |
| FHQIETLVTTGANVNETDDWGRTA | 3.03 |
| FHKIETLVTTGANVNETDDWGRTA | 3.8 |
| FHLIETLVTTGANVNETDDWGRTA | 2.05 |
| FHFIETLVTTGANVNETDDWGRTA | 2 |

| Variant | protein stability index |
| --- | --- |
| FHIIETLVTTGANVNETDDWGRTA | 1.78 |
| FHRIETLVTTGANVNETDDWGRTA | 2.47 |
| FHCIETVVTTGANVNETDDWGRTA | 2.19 |
| FHCIETGVTTGANVNETDDWGRTA | 2.42 |
| FHCIETDVTTGANVNETDDWGRTA | 4.03 |
| FHCIETHVTTGANVNETDDWGRTA | 2.56 |
| FHCIETNVTTGANVNETDDWGRTA | 3.08 |
| FHCIETLVTTGANQNETDDWGRTA | 2.11 |
| FHCIETLVTTGANDNETDDWGRTA | 2.26 |
| FHCIETLVTTGANNNETDDWGRTA | 3 |
| FHCIETLVTTGANWNETDDWGRTA | 1.54 |
| FHCIETLVTTGANINETDDWGRTA | 1.82 |
| FHCIETLVTTGANGNETDDWGRTA | 1.86 |
| FHCIETLVTTGANSNETDDWGRTA | 2.41 |
| FHCIETLVTTGANYNETDDWGRTA | 1.77 |
| FHCIETLVTTGANTNETDDWGRTA | 2.93 |
| FHCIETLVTTGANHNETDDWGRTA | 1.94 |
| FHCIETLVTTGANFNETDDWGRTA | 2.14 |
| FHCIETLVTTGANVNETDDWWRTA | 2.48 |
| FHCIETLVTTGANVNETDDWRRTA | 2.5 |
| FHCIETLVTTGANVNETDDWKRTA | 2.42 |
| FHCIETLVTTGANVNETDDWTRTA | 2.25 |
